“Also recorded” adds a separate entry of the source.
Experiments:
[1] = tested on: DLL4/Notch signaling pathway; assay: Western blotting of NICD in HUVECs on rhDLL4-coated plate (DLL4/Notch signaling pathway); type: cell-based, human; details: 20 μg/ml MLCK-2 mAb
Source text: In Notch signaling, when DLL4 binds to a Notch receptor, this causes a […] change in the Notch receptor leading to the cleavage thereof, and then an intracellular domain of Notch (NICD) enters the nucleus and mediates a Notch signaling. In this regard, it was confirmed whether the anti-DLL4 antibody of the present invention could inhibit the binding between DLL4 and a Notch receptor, thereby disrupting the Notch signaling through monitoring the inhibition of a Notch receptor cleavage as below.
To be specific, in order to determine the inhibitory activity of the DLL4-binding antibodies against the DLL4/Notch signaling pathway, the inhibition of signaling pathway in HUVECs was analyzed in the present experiment. One day before conducting experiment, a recombinant human DLL4 (rhDLL4, R&D systems) was diluted with carbonate buffer to a final concentration of 1 μg/ml, and then 1 ml/well of the diluted rhDLL4 was added to a 6-well plate (BD) and incubated at 4° C. overnight. […]
Subsequently, the plate was put on ice and HUVECs were collected from each well using a scraper and put into a 1.5 ml tube and stored in ice. […] For SDS-PAGE analysis, the supernatant was added to 5×SDS sample buffer and boiled at 100° c. for 10 minutes analyzed by SDS-PAGE. […]

[2] = target: T1, human DLL4-His bound to plate-coated Notch 1-Fc (Homo sapiens, UniProt Q9NR61); assay: ELISA-based solution competition (neutralization) test, DLL4 binding to hNotch-1-hFc; details: antibody concentration of 0.1 μM
T1 construct: The DLL4 antigen protein comprises 27th to 522nd amino acid residues of DLL4; purchased R&D System 1506-D4/CF
Description: The neutralization effects of the anti-DLL4 antibodies were evaluated using an ELISA-based solution competition test.
Each well of a 96-well microtiter plate (Nunc-Immuno Plate, NUNC, Rochester, N.Y.) was coated with 100 μl of 500 ng/ml of hNotch-1-hFc protein (R&D Systems) (diluted in PBS) at 4° C. overnight, and non-specific binding sites were blocked with BSA for 2 hours.
The anti-DLL4 antibody (purified protein) on the 96-well microtiter plate was premixed with serial dilutions of antigen protein (DLL4 antigen, 600 ng/m) at an antibody concentration ranging from 0 nM to 140 nM. The antigen/antibody mixture was incubated for 30 minutes, and then transferred to a microtiter plate precoated with the DLL4 receptor hNotch-1 protein (50 ng/well) in order to measure free […]. Then, the plate was incubated for 2 hours and washed five times with 0.05% tween 20-containing PBS. In order to detect the DLL4 antigen bound to the plate, an HRP-conjugated His […] polyclonal antibody reagent (Roche applied science) was diluted at a ratio of 1:500, and the washed microtiter plate was treated with the diluted antibody reagent, and then allowed to react at 37° C. for 1 hour. Then, color development was performed using a colorimetric substrate (3,3′,5,5′-tetramethylbenzidine; Sigma-Aldrich Co.), and the enzymatic reaction was stopped using 0.5 mol/l of sulfuric acid. The amounts of antibodies required to achieve a 50% decrease in human DLL4-His bound to plate-coated Notch 1-Fc (IC50) are shown in Table 1 below.

[3] = tested on: human umbilical vein endothelial cell (HUVEC); assay: HUVEC proliferation assay on rhDLL4-coated plate (CCK-8); type: cell-based; details: rhDLL4-coated plate 1 μg/ml; MLCK-2 mAb 20 μg/ml; 96 hours
Description: In order to investigate the effect of DLL4-binding antibodies on proliferation of human umbilical vein endothelial cell (HUVEC), a representative anti-DLL4 antibody, MLCK-2 antibody, was analyzed for the effect thereof on proliferation of HUVEC.
To be specific, human umbilical vein endothelial cell (HUVEC) was purchased from Lonza to be used in this experiment. T-flask (Nunc) was coated with PBS buffer (Gibco) added with 1% gelatin (Sigma) at a room temperature for 4 to 6 hours, washed with PBS, and then it was used for culturing HUVECs. EBM-2 (Lonza) supplemented with EGM-2 Single Quot (Lonza) was used as a culture medium, density of a cell culture was remained below 80%, and the cells were cultured at 37° C. in a 5% CO2 incubator. The cells before passage 6 were used for this experiment. HUVEC proliferation assay was done by following process. First, to prepare the hDLL4-coated plate, one day before conducting the experiment, rhDLL4 (R&D systems) was diluted in a carbonate buffer to a final concentration of 1 μg/ml in a 96-well plate (BD), where 100 μl of the diluted rhDLL4 was inoculated per each well, and the plate was incubated at 4° C. overnight. […] Using the apparatus SpectraMax 190 (Molecular Devices), the absorption of the sample at 450 nm-650 nm was measured and the levels of cell proliferation were compared among different test groups.

T1 sequence (Q9NR61 27-522): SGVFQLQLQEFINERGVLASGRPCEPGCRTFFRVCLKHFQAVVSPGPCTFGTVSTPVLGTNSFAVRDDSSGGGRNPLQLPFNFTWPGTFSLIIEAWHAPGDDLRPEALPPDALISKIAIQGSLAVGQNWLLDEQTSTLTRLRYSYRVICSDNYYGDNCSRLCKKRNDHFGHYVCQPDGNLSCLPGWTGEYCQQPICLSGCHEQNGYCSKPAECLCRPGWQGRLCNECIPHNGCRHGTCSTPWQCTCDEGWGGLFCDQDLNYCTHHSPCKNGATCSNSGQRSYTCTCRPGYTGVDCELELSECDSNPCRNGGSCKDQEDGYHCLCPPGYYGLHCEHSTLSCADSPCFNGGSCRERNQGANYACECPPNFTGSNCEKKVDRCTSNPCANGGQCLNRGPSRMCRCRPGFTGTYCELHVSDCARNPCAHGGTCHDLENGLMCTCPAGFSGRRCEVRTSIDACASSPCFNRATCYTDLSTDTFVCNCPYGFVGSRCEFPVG

Molecule	level of NICD / Notch signaling (western blotting) [1]	blocking of the bindings between DLL4 and human Notch 1 receptor [2]	effect on DLL4-mediated inhibition of HUVEC proliferation [3]
MLCK-2: human monoclonal anti-DLL4 antibody; heavy chain variable region SEQ ID NO: 5, light chain variable region SEQ ID NO: 19 (antibody, V domains shown, a heavy chain variable region of MLCK-2; a light chain variable region of MLCK-2) VH: EVQLLESGGGLVQPGGSLRLSCAASGFTFSDYAMSWVRQAPGKGLEWVSWIYSGSGNKYYADSVKGRFTISRDNSKNTLYLQMNSLRAEDTAVYYCARADWPFDYWGQGTLVTVSS VL: QSVLTQPPSASGTPGQRVTISCTGSSSNIGSNDVTWYQQLPGTAPKLLIYADSKRPSGVPDRFSGSKSGTSASLAISGLRSEDEADYYCGTWDYSLSAYVFGGGTKLTVL	reduced the level of NICD; also recorded: inhibits Notch signaling	blocked most of the bindings	blocks the DLL4-mediated suppression of HUVEC proliferation
MLCK-3: human monoclonal anti-DLL4 antibody; heavy chain variable region SEQ ID NO: 8, light chain variable region SEQ ID NO: 23 (antibody, V domains shown, a heavy chain variable region of MLCK-3; a light chain variable region of MLCK-3) VH: EVQLLESGGGLVQPGGSLRLSCAASGFTFSDYAMSWVRQAPGKGLEWVSWIYYDSGSKYYADSVKGRFTISRDNSKNTLYLQMNSLRAEDTAVYYCARADLPFDYWGQGTLVTVSS VL: QSVLTQPPSASGTPGQRVTISCSGSSSNIGNNAVTWYQQLPGTAPKLLIYSDNHRPSGVPDRFSGSKSGTSASLAISGLRSEDEADYYCGTWDASLSGYVFGGGTKLTVL	–	blocked most of the bindings	–
MLCK-1: human monoclonal anti-DLL4 antibody; heavy chain variable region SEQ ID NO: 1, light chain variable region SEQ ID NO: 15 (antibody, V domains shown, a heavy chain variable region of MLCK-1; a light chain variable region of MLCK-1) VH: EVQLLESGGGLVQPGGSLRLSCAASGFTFSDYAMSWVRQAPGKGLEWVSWIYSDDGNKYYADSVKGRFTISRDNSKNTLYLQMNSLRAEDTAVYYCARADPPFDYWGQGTLVTVSS VL: QSVLTQPPSASGTPGQRVTISCTGSSSNIGSNNVSWYQQLPGTAPKLLIYSDNNRPSGVPDRFSGSKSGTSASLAISGLRSEDEADYYCATWDSSLNGYVFGGGTKLTVL	–	blocked most of the bindings	–
MLCK-4: human monoclonal anti-DLL4 antibody; heavy chain variable region SEQ ID NO: 11, light chain variable region SEQ ID NO: 27 (antibody, V domains shown, a heavy chain variable region of MLCK-4; a light chain variable region of MLCK-4) VH: EVQLLESGGGLVQPGGSLRLSCAASGFTFSNYAMSWVRQAPGKGLEWVSWIYHGGGDTYYADSVKGRFTISRDNSKNTLYLQMNSLRAEDTAVYYCARGPNYTFGKPFDYWGQGTLVTVSS VL: QSVLTQPPSASGTPGQRVTISCRGSPSNIGNNTVYWYQQLPGTAPKLLIYSDSQRPSGVPDRFSGSKSGTSASLAISGLRSEDEADYYCGSWDYSLSAYVFGGGTKLTVL	–	blocked most of the bindings	–

— patent publication US9598483B2, “Monoclonal antibody binding specifically to DLL4 and use thereof” (ABLBIO, priority 2012, dated 2017)
